Laboratory results from ChEMBL document CHEMBL4680222, “Sensitive fluorogenic substrates for sirtuin deacylase inhibitor discovery” (Eur J Med Chem, 2020).

Assays:
[1] = compound: CC(=O)NCCCC[C@H](NC(=O)[C@H](CC(C)C)NC(=O)[C@H](CCCCN)NC(=O)[C@H](Cc1ccc(O)cc1)NC(C)=O)C(=O)Nc1ccc2c(C)cc(=O)oc2c1; assay: (§1) Substrate activity at human N-terminal His-tagged SIRT1 (183 to 664 residues) expressed in Escherichia coli assessed as ratio of Kcat to Km measured after 1 hr in presence of NAD+ and trypsin by Michaelis-Menten kinetic model based fluorescence assay
[2] = compound: CC[C@H](C)[C@H](NC(=O)[C@H](CC(C)C)NC(=O)[C@H](CCCNC(=N)N)NC(C)=O)C(=O)N[C@@H](CCCCNC(C)=O)C(=O)Nc1ccc2c(C)cc(=O)oc2c1; assay: as §1
[3] = compound: CC(=O)NCCCC[C@H](NC(=O)[C@H](CC(C)C)NC(=O)[C@H](CCCCN)NC(=O)[C@H](Cc1ccc(O)cc1)NC(C)=O)C(=O)Nc1ccc2c(C)cc(=O)oc2c1; assay: (§2) Substrate activity at human N-terminal His-tagged SIRT1 (183 to 664 residues) expressed in Escherichia coli assessed as Kcat measured after 1 hr in presence of NAD+ and trypsin by Michaelis-Menten kinetic model based fluorescence assay
[4] = compound: CC[C@H](C)[C@H](NC(=O)[C@H](CC(C)C)NC(=O)[C@H](CCCNC(=N)N)NC(C)=O)C(=O)N[C@@H](CCCCNC(C)=O)C(=O)Nc1ccc2c(C)cc(=O)oc2c1; assay: as §2
[5] = compound: CC(=O)NCCCC[C@H](NC(=O)[C@H](CC(C)C)NC(=O)[C@H](CCCCN)NC(=O)[C@H](Cc1ccc(O)cc1)NC(C)=O)C(=O)Nc1ccc2c(C)cc(=O)oc2c1; assay: (§3) Substrate activity at human N-terminal His-tagged SIRT1 (183 to 664 residues) expressed in Escherichia coli assessed as Vmax measured after 1 hr in presence of NAD+ and trypsin by Michaelis-Menten kinetic model based fluorescence assay
[6] = compound: CC[C@H](C)[C@H](NC(=O)[C@H](CC(C)C)NC(=O)[C@H](CCCNC(=N)N)NC(C)=O)C(=O)N[C@@H](CCCCNC(C)=O)C(=O)Nc1ccc2c(C)cc(=O)oc2c1; assay: as §3
[7] = compound: CC(=O)NCCCC[C@H](NC(=O)[C@H](CC(C)C)NC(=O)[C@H](CCCCN)NC(=O)[C@H](Cc1ccc(O)cc1)NC(C)=O)C(=O)Nc1ccc2c(C)cc(=O)oc2c1; assay: (§4) Substrate activity at human N-terminal His-tagged SIRT1 (183 to 664 residues) expressed in Escherichia coli assessed as Km measured after 1 hr in presence of NAD+ and trypsin by Michaelis-Menten kinetic model based fluorescence assay
[8] = compound: CC[C@H](C)[C@H](NC(=O)[C@H](CC(C)C)NC(=O)[C@H](CCCNC(=N)N)NC(C)=O)C(=O)N[C@@H](CCCCNC(C)=O)C(=O)Nc1ccc2c(C)cc(=O)oc2c1; assay: as §4
[9] = compound: CC(=O)NCCCC[C@H](NC(=O)OCc1ccccc1)C(=O)Nc1ccc2c(C)cc(=O)oc2c1; assay: (§5) Substrate activity at human N-terminal His-tagged SIRT2 (56 to 356 residues) expressed in Escherichia coli assessed as Km measured after 1 hr in presence of NAD+ and trypsin by Michaelis-Menten kinetic model based fluorescence assay
[10] = compound: CC(=O)NCCCC[C@H](NC(=O)[C@H](CC(C)C)NC(=O)[C@H](CCCCN)NC(=O)[C@H](Cc1ccc(O)cc1)NC(C)=O)C(=O)Nc1ccc2c(C)cc(=O)oc2c1; assay: as §5
[11] = compound: CCCCCCCCCC(=O)NCCCC[C@H](NC(=O)[C@@H](NC(=O)[C@H](CO)NC(=O)[C@H](CO)NC(C)=O)[C@@H](C)CC)C(=O)Nc1ccc2c(C)cc(=O)oc2c1; assay: as §5
[12] = compound: CCCCCCCCCC(=O)NCCCC[C@H](NC(=O)[C@H](CC(=O)O)NC(=O)[C@@H](NC(=O)[C@H](CCC(=O)O)NC(C)=O)[C@@H](C)O)C(=O)Nc1ccc2c(C)cc(=O)oc2c1; assay: as §5
[13] = compound: CCCCCCCCCCCCCC(=O)NCCCC[C@H](NC(=O)OCc1ccccc1)C(=O)Nc1ccc2c(C)cc(=O)oc2c1; assay: as §5
[14] = compound: CC[C@H](C)[C@H](NC(=O)[C@H](CC(C)C)NC(=O)[C@H](CCCNC(=N)N)NC(C)=O)C(=O)N[C@@H](CCCCNC(C)=O)C(=O)Nc1ccc2c(C)cc(=O)oc2c1; assay: as §5
[15] = compound: CC(=O)NCCCC[C@H](NC(=O)OCc1ccccc1)C(=O)Nc1ccc2c(C)cc(=O)oc2c1; assay: (§6) Substrate activity at human N-terminal His-tagged SIRT2 (56 to 356 residues) expressed in Escherichia coli assessed as Vmax measured after 1 hr in presence of NAD+ and trypsin by Michaelis-Menten kinetic model based fluorescence assay
[16] = compound: CC(=O)NCCCC[C@H](NC(=O)[C@H](CC(C)C)NC(=O)[C@H](CCCCN)NC(=O)[C@H](Cc1ccc(O)cc1)NC(C)=O)C(=O)Nc1ccc2c(C)cc(=O)oc2c1; assay: as §6
[17] = compound: CCCCCCCCCC(=O)NCCCC[C@H](NC(=O)[C@@H](NC(=O)[C@H](CO)NC(=O)[C@H](CO)NC(C)=O)[C@@H](C)CC)C(=O)Nc1ccc2c(C)cc(=O)oc2c1; assay: as §6
[18] = compound: CCCCCCCCCC(=O)NCCCC[C@H](NC(=O)[C@H](CC(=O)O)NC(=O)[C@@H](NC(=O)[C@H](CCC(=O)O)NC(C)=O)[C@@H](C)O)C(=O)Nc1ccc2c(C)cc(=O)oc2c1; assay: as §6
[19] = compound: CCCCCCCCCCCCCC(=O)NCCCC[C@H](NC(=O)OCc1ccccc1)C(=O)Nc1ccc2c(C)cc(=O)oc2c1; assay: as §6
[20] = compound: CC[C@H](C)[C@H](NC(=O)[C@H](CC(C)C)NC(=O)[C@H](CCCNC(=N)N)NC(C)=O)C(=O)N[C@@H](CCCCNC(C)=O)C(=O)Nc1ccc2c(C)cc(=O)oc2c1; assay: as §6
[21] = compound: CC(=O)NCCCC[C@H](NC(=O)OCc1ccccc1)C(=O)Nc1ccc2c(C)cc(=O)oc2c1; assay: (§7) Substrate activity at human N-terminal His-tagged SIRT2 (56 to 356 residues) expressed in Escherichia coli assessed as Kcat measured after 1 hr in presence of NAD+ and trypsin by Michaelis-Menten kinetic model based fluorescence assay
[22] = compound: CC(=O)NCCCC[C@H](NC(=O)[C@H](CC(C)C)NC(=O)[C@H](CCCCN)NC(=O)[C@H](Cc1ccc(O)cc1)NC(C)=O)C(=O)Nc1ccc2c(C)cc(=O)oc2c1; assay: as §7
[23] = compound: CCCCCCCCCC(=O)NCCCC[C@H](NC(=O)[C@@H](NC(=O)[C@H](CO)NC(=O)[C@H](CO)NC(C)=O)[C@@H](C)CC)C(=O)Nc1ccc2c(C)cc(=O)oc2c1; assay: as §7
[24] = compound: CCCCCCCCCC(=O)NCCCC[C@H](NC(=O)[C@H](CC(=O)O)NC(=O)[C@@H](NC(=O)[C@H](CCC(=O)O)NC(C)=O)[C@@H](C)O)C(=O)Nc1ccc2c(C)cc(=O)oc2c1; assay: as §7
[25] = compound: CCCCCCCCCCCCCC(=O)NCCCC[C@H](NC(=O)OCc1ccccc1)C(=O)Nc1ccc2c(C)cc(=O)oc2c1; assay: as §7
[26] = compound: CC[C@H](C)[C@H](NC(=O)[C@H](CC(C)C)NC(=O)[C@H](CCCNC(=N)N)NC(C)=O)C(=O)N[C@@H](CCCCNC(C)=O)C(=O)Nc1ccc2c(C)cc(=O)oc2c1; assay: as §7
[27] = compound: CC(=O)NCCCC[C@H](NC(=O)OCc1ccccc1)C(=O)Nc1ccc2c(C)cc(=O)oc2c1; assay: (§8) Substrate activity at human N-terminal His-tagged SIRT2 (56 to 356 residues) expressed in Escherichia coli assessed as ratio of Kcat to Km measured after 1 hr in presence of NAD+ and trypsin by Michaelis-Menten kinetic model based fluorescence assay
[28] = compound: CC(=O)NCCCC[C@H](NC(=O)[C@H](CC(C)C)NC(=O)[C@H](CCCCN)NC(=O)[C@H](Cc1ccc(O)cc1)NC(C)=O)C(=O)Nc1ccc2c(C)cc(=O)oc2c1; assay: as §8
[29] = compound: CCCCCCCCCC(=O)NCCCC[C@H](NC(=O)[C@@H](NC(=O)[C@H](CO)NC(=O)[C@H](CO)NC(C)=O)[C@@H](C)CC)C(=O)Nc1ccc2c(C)cc(=O)oc2c1; assay: as §8
[30] = compound: CCCCCCCCCC(=O)NCCCC[C@H](NC(=O)[C@H](CC(=O)O)NC(=O)[C@@H](NC(=O)[C@H](CCC(=O)O)NC(C)=O)[C@@H](C)O)C(=O)Nc1ccc2c(C)cc(=O)oc2c1; assay: as §8
[31] = compound: CCCCCCCCCCCCCC(=O)NCCCC[C@H](NC(=O)OCc1ccccc1)C(=O)Nc1ccc2c(C)cc(=O)oc2c1; assay: as §8
[32] = compound: CC[C@H](C)[C@H](NC(=O)[C@H](CC(C)C)NC(=O)[C@H](CCCNC(=N)N)NC(C)=O)C(=O)N[C@@H](CCCCNC(C)=O)C(=O)Nc1ccc2c(C)cc(=O)oc2c1; assay: as §8

B1: NAD-dependent protein deacetylase sirtuin-1 (Homo sapiens), Q96EB6 (protein)
chain: MADEAALALQPGGSPSAAGADREAASSPAGEPLRKRPRRDGPGLERSPGEPGGAAPEREVPAAARGCPGAAAAALWREAEAEAAAAGGEQEAQATAAAGEGDNGPGLQGPSREPPLADNLYDEDDDDEGEEEEEAAAAAIGYRDNLLFGDEIITNGFHSCESDEEDRASHASSSDWTPRPRIGPYTFVQQHLMIGTDPRTILKDLLPETIPPPELDDMTLWQIVINILSEPPKRKKRKDINTIEDAVKLLQECKKIIVLTGAGVSVSCGIPDFRSRDGIYARLAVDFPDLPDPQAMFDIEYFRKDPRPFFKFAKEIYPGQFQPSLCHKFIALSDKEGKLLRNYTQNIDTLEQVAGIQRIIQCHGSFATASCLICKYKVDCEAVRGDIFNQVVPRCPRCPADEPLAIMKPEIVFFGENLPEQFHRAMKYDKDEVDLLIVIGSSLKVRPVALIPSSIPHEVPQILINREPLPHLHFDVELLGDCDVIINELCHRLGGEYAKLCCNPVKLSEITEKPPRTQKELAYLSELPPTPLHVSEDSSSPERTSPPDSSVIVTLLDQAAKSNDDLDVSESKGCMEEKPQEVQTSRNVESIAEQMENPDLKNVGSSTGEKNERTSVAGTVRKCWPNRVAKEQISRRLDGNQYLFLPPNRYIFHGAEVYSDSEDDVLSSSSCGSNSDSGTCQSPSLEEPMEDESEIEEFYNGLEDEPDVPERAGGAGFGTDGDDQEAINEAISVKQEVTDMNYPSNKS
kcat/Km [1]: 226 M⁻¹ s⁻¹
kcat/Km [2]: 669 M⁻¹ s⁻¹
kcat [3]: 17.3 10^-3/s
kcat [4]: 37.9 10^-3/s
Vmax [5]: 208 nM/min
Vmax [6]: 454 nM/min
Km [7]: 76.5 µM
Km [8]: 56.6 µM

B2: NAD-dependent protein deacetylase sirtuin-2 (Homo sapiens), Q8IXJ6 (protein)
chain: MAEPDPSHPLETQAGKVQEAQDSDSDSEGGAAGGEADMDFLRNLFSQTLSLGSQKERLLDELTLEGVARYMQSERCRRVICLVGAGISTSAGIPDFRSPSTGLYDNLEKYHLPYPEAIFEISYFKKHPEPFFALAKELYPGQFKPTICHYFMRLLKDKGLLLRCYTQNIDTLERIAGLEQEDLVEAHGTFYTSHCVSASCRHEYPLSWMKEKIFSEVTPKCEDCQSLVKPDIVFFGESLPARFFSCMQSDFLKVDLLLVMGTSLQVQPFASLISKAPLSTPRLLINKEKAGQSDPFLGMIMGLGGGMDFDSKKAYRDVAWLGECDQGCLALAELLGWKKELEDLVRREHASIDAQSGAGVPNPSTSASPKKSPPPAKDEARTTEREKPQ
Km [9]: 274 µM
Km [10]: 106 µM
Km [11]: 1.2 µM
Km [12]: 16.5 µM
Km [13]: 1.7 µM
Km [14]: 41.6 µM
Vmax [15]: 26.3 nM/min
Vmax [16]: 81.9 nM/min
Vmax [17]: 25.5 nM/min
Vmax [18]: 61.9 nM/min
Vmax [19]: 1.63 nM/min
Vmax [20]: 36.1 nM/min
kcat [21]: 0.98 10^-3/s
kcat [22]: 13.6 10^-3/s
kcat [23]: 4.25 10^-3/s
kcat [24]: 20.6 10^-3/s
kcat [25]: 0.054 10^-3/s
kcat [26]: 12 10^-3/s
kcat/Km [27]: 3.5 M⁻¹ s⁻¹
kcat/Km [28]: 129 M⁻¹ s⁻¹
kcat/Km [29]: 3530 M⁻¹ s⁻¹
kcat/Km [30]: 1250 M⁻¹ s⁻¹
kcat/Km [31]: 3.2 M⁻¹ s⁻¹
kcat/Km [32]: 289 M⁻¹ s⁻¹
